Source: patent US20050181997A1

Target: Flt3 3T3 cells (mFlt3/fms 3T3 cells and/or Stk 3T3 cells)
Test: cell-based or functional assay

- Specific Activity (u/mg) in the Flt3 3T3 assay, Superdex 75 step: 244000 u/mg
Substance: Pv-FRIL (FRIL family member from Phaseolus vulgaris, red kidney bean)
